# Source: publication PMC3830201 (2013)
# B1: GST-Swiprosin-1 fusion protein (wild type) (protein)
# chain: MATDELATKLSRRLQMEGEGGGETPEQPGLNGAAAAAAGAPDEAAEALGSADCELSAKLLRRADLNQGIGEPQSPSRRVFNPYTEFKEFSRKQIKDMEKMFKQYDAGRDGFIDLMELKLMMEKLGAPQTHLGLKNMIKEVDEDFDSKLSFREFLLIFRKAAAGELQEDSGLCVLARLSEIDVSSEGVKGAKSFFEAKVQAINVSSRFEEEIKAEQEERKKQAEEMKQRKAAFKELQSTFK
# Biological target: F-actin assembled from rabbit skeletal muscle G-actin (Oryctolagus cuniculus (Rabbit), UniProt P68135)
# Test: F-actin co-sedimentation
binder,measurement,value
B1,binding result,binds
